Assay results reported in patent US20210214414A1 (Pfizer, published 2021).

Key:
Rabbit SLIT3-N = biological target: T1, Rabbit SLIT3-N (rabbit, UniProt A0A5F9DK65 34-1126); experiment: HTRF competition: d2-labelled rabbit SLIT3-N binding to human ROBO2 on HEK293 cells; geometric mean, n=3
T1 construct: domain: SLIT3-N; d2-labelled in the HTRF assay
T1 sequence: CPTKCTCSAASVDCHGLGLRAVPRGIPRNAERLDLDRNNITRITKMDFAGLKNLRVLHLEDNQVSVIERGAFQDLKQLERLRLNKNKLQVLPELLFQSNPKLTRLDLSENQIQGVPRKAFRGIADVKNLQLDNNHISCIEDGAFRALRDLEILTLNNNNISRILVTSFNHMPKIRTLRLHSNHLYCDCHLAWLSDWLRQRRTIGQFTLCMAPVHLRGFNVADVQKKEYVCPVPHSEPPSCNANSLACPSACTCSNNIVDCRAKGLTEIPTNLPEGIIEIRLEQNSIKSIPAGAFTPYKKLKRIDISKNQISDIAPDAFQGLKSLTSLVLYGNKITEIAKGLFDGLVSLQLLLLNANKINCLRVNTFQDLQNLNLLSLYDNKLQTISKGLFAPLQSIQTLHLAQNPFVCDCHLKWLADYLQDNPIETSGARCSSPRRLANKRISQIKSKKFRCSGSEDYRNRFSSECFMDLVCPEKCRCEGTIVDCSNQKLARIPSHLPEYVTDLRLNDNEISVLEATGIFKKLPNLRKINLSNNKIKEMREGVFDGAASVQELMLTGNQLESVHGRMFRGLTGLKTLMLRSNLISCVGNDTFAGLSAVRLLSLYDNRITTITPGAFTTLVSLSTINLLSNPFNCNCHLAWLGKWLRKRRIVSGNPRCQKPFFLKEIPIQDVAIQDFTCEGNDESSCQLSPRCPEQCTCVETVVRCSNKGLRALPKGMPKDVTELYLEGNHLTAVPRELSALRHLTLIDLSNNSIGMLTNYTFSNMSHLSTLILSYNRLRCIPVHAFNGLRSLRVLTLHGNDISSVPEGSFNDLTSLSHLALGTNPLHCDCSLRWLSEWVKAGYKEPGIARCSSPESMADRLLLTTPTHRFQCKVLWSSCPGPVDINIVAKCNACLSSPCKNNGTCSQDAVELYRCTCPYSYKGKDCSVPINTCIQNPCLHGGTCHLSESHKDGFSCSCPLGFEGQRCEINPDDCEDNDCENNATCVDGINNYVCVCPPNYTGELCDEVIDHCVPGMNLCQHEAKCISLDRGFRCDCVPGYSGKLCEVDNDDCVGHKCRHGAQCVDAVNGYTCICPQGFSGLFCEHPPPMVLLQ
Procedure: (§1) After incubation, fluorescence at 665 nm and 620 nm was measured on an Envision multilabel plate reader. The HTRF Ratio was calculated as follows: fluorescence at 665 nm/fluorescence at 620 nm×10,000. […] The IC₅₀ for each SLITx-N was determined using an 11-point, 4-fold dilution series with a top concentration of 4000 nM.

[1] = biological target: T2, Human/cynomolgus monkey SLIT2-D2 (human and cynomolgus monkey (100% …, UniProt O94813 271-479)); experiment: SPR, ROBO2-Fc 2.2 captured by anti-human Fc on a C1 chip, SLIT2-D2 as analyte, 1:1 model
T2 construct: domain: D2; the crystallisation construct (271-479, His6) is kept as a separate molecule; also called Human and Cynomolgus Monkey SLIT2-D2; SLIT2 D2 domain
T2 sequence (looked up): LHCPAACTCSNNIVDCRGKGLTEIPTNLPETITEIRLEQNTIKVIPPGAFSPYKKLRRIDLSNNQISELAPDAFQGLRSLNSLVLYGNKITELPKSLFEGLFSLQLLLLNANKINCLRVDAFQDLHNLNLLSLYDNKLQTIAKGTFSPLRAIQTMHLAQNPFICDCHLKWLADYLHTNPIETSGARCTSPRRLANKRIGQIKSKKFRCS
Procedure: HBS-EP was used as a diluent. […] An 8 point 2-fold dilution series was performed on the SLIT2 ligands, ranging from 2 nM to 15.6 pM using HBS-EPB as the diluent. […] Association of the indicated SLIT2 ligand was followed for 120 s and dissociation monitored for 180 s. The apparent binding affinity was determined using a simple 1:1 interaction model of the kinetic rate constants.

Human SLIT2-N = biological target: T3, Human SLIT2-N (human, UniProt O94813 31-1121, limits assumed); experiment: HTRF competition: d2-labelled human SLIT2-N binding to human ROBO2 on HEK293 cells; geometric mean, n=4; Table 2 species panel; geometric mean, n=4
T3 construct: domain: SLIT2-N (N terminal fragment); Soluble analyte in SPR, d2-labelled in HTRF, overexpressed on HEK293 cells in flow cytometry; also called human SLIT2-N (N terminal fragment)
T3 sequence (looked up): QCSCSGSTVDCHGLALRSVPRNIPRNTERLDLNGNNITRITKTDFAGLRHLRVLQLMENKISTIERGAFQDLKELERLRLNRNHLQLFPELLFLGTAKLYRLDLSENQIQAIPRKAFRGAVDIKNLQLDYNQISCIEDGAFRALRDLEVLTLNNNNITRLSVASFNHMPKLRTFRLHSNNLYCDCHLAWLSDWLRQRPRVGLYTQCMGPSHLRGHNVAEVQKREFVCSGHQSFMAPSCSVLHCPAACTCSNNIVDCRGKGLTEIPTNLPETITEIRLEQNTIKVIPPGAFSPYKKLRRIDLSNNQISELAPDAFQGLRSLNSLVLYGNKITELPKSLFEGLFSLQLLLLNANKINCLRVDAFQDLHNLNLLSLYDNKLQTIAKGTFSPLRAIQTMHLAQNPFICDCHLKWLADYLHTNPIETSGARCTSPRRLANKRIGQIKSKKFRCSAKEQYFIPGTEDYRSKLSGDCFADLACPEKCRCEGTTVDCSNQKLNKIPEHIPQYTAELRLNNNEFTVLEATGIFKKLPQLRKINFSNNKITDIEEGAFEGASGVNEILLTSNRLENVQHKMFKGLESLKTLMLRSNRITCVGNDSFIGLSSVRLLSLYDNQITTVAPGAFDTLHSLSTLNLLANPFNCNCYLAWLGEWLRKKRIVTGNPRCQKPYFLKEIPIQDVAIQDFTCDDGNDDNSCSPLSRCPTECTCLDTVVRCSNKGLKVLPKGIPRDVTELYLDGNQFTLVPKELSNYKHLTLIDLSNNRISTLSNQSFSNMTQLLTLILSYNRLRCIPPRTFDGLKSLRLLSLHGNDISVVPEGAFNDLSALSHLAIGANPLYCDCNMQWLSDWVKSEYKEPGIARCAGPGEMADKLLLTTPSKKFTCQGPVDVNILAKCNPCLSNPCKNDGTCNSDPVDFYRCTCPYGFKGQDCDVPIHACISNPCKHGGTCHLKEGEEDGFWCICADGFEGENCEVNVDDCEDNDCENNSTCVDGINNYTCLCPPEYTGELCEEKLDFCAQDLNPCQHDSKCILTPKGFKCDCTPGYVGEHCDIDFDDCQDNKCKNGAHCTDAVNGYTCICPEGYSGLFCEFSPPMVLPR
Procedure: as §1

IC50 (Rabbit SLIT3-N): 10.2 nM | Kd [1]: 0.293 nM | IC50 (Human SLIT2-N): 3.9 nM
B1: ROBO2-Fc 2.2 (Fc fusion)
chain: SRLRQEDFPPRIVEHPSDVIVSKGEPTTLNCKAEGRPTPTIEWYKDGERVETDKDDPRSHRMLLPSGSLFFLRIVHGRRSKPDEGSYVCVARNYLGEAVSRNASLEVALLRDDFRQNPTDVVVAAGEPAILECQPPRGHPEPTIYWKKDKVRIDDKEERISIRGGKLMISNTRKSDAGMYTCVGTNMVGERDSDPAELTVFERGGSGGSEPKSSDKTHTCPPCPAPEAAGAPSVFLFPPKPKDTLMISRTPEVTCVVVDVSHEDPEVKFNWYVDGVEVHNAKTKPREEQYNSTYRVVSVLTVLHQDWLNGKEYKCKVSNKALPAPIEKTISKAKGQPREPQVYTLPPSREEMTKNQVSLTCLVKGFYPSDIAVEWESNGQPENNYKTTPPVLDSDGSFFLYSKLTVDKSRWQQGNVFSCSVMHEALHNHYTQKSLSLSPG
notes: Labelled with Alexa Fluor 647 in the flow cytometry assay; also called ROBO-Fc 2.2; ROBO2-Fc 2.2-AF647
